# According to the DeepSol protein solubility set:
# Assay: soluble on expression in E. coli; label from the status in PepcDB or PDB records
row,Sequence,soluble on expression in E. coli
1,MTKDLLLELGLEELPAYVVTPSEKQLGQKMVKFLEDHRLSFETVQIFSTPRRLAVRVKGLADQQTDLTEDFKGPSKKIALDAEGNFSKAAQGFVRGKGLSVDDIEFREVKGEEYVYVTKHETGKSAIDVLASVTEVLTELTFPVNMHWANNSFEYIRPVHTLVVLLDDQALELDFLDIHSGRISRGHRFLGSDTEISSASSYEDDLRQQFVIADAKERQQMIVNQIHAIEEKKNISVEIDEDLLNEVLNLVEYPTAFLGSFDEKYLDVPEEVLVTSMKNHQRYFVVRDRDGKLLPNFISVRNGNAEHIENVIKGNEKVLVARLEDGEFFWQEDQKLNIADLVEKLKQVTFHEKIGSLYEHMDRVKVISQYLAEKADLSDEEKLAVLRAASIYKFDLLTGMVDEFDELQGIMGEKYALLAGEQPAVAAAIREHYMPTSADGELPETRVGAILALADKFDTLLSFFSVGLIPSGSNDPYALRRATQGIVRILEAFGWDIPLDELVTNLYGLSFASLDYANQKEVMAFISARIEKMIGSKVPKDIREAVLESDTYI,not soluble
2,MGSDKIHHHHHHMHFAPVEQATRFLADNPDIELFELFILDANGVPRGKLLHREELLAVYQTGRPLPSTILGLTLNGDDVENSGLVWDVGDIDCRAYPLDGSLVRLPWRRVPTAAVQVSMHPSEGLPASIADPRHVLLRTIEALKADGYHPVMACELEFYLLDQQRDAQGRPQPALDNDGGRPRSTQVYGLRELEQIEPFLADLYAACKAQGIPARTAISEYAPGQVEITLEHGDALQAMDQAVRYKRLVKGVAHAHGMQACFMAKPFAQLAGTGMHMHLSLADSAGNNLFASEDKAGTPLLRQAVAGMLRHLRDSLLLFCPNANSFRRFQANSYAPLAPTWGVDNRTVSLRVPGGPANSRHVEHRICGADANPYLAAAAILAASHWGIREQLDPGAPVEGNGYAQATEHLPTDWLTALDALQHSDWAREALGEDFLGVYLKVKRAEYRQFMAEVSEQDWRWYLHQA,not soluble
3,MGSDKIHHHHHHMNFKQLLIDNFTYKTSYIARQAQGMNVKETKDYIAVDCGLPADTFNIITLLNNNVTEGIEKLYKEVNNYNQKKFPMSVWFWDDRYEQTIKSELIKLDLKEAEQNIAMVAELNTIHPTINMPEGFTIQKASSPEQIKKFGETLANLFGSSEEGIHVQAFYNQTASFDLWNSGNMNLYLGLYKDEVISVGSLVCTKDSIGIYDIATKEEMRGKGFGSTMFHYLLQEAKALNVAQCVLQASPDGINIYKKAGFQSVGQMTVFENRHLFE,not soluble
4,MSLKITAARVIITCPGRNFVTLKIETDQGVYGIGDATLNGRELSVVAYLAGTRRALPHRHGPAPHRGHLAVCLSRAYWRAPARLTMRAIAAVDMALWDIKAKMAGMPLYQLLGGRSRDGIMVYGHANGSDIAETVEAVGHYIDMGYKAIRAQTGVPGIKDAYGVGRGKLYYEPADASLPSVTGWDTRKALNYVPKLFEELRKTYGFDHHLLHDGHHRYTPQEAANLGKMLEPYQLFWLEDCTPAENQEAFRLVRQHTVTPLAVGEIFNTIWDAKDLIQNQLIDYIRATVVGAGGLTHLRRIADLASLYQVRTGCHGATDLSPVTMGCALHFDTWVPNFGIQEYMRHTEETDAVFPHDYWFEKGELFVGETPGHGVDIDEELAAKYPYKPAYLPVARLEDGTMWNWEGHHHHHH,not soluble
5,MSFNKEDQQDEALAFLLAVATVESGDAGAFRQRVTQYMTKAYGEDTSKMTMQEQGRAEAVSRLYARADNIYHRIKVNALPRLSRGF,not soluble
6,MGSDKIHHHHHHMQRARCYLLGERAVVLELEPPMSLESQQRIWGLAERLNHHEEVLEVIPGMNNLTVLLAHPQQVALDAIERLQRWWEESESLVFDPRDIDIPVIYGGEAGPDLAEVAAHSGLTVSQVVEAHAAAQYVVYFLGFQPGFAYLGGLNEKLHMPRRAEPRLRVPEGSVGIGGAQTGIYPLATPGGWQLIGRTSLTLFNPQTMPPTLLRPGDNVRFLPQKEGVC,not soluble
7,MSLQDDDFSLFKSEMRGVKRISVDRADTGKPRNDRQQLKQRQLNASVRNDEIRVDGLSDQFVIDVGPEDELSWARDGVQESQLRKLKQGLVPFDGSLDLHGMSVEKARQTLWDFLAEATRLEIRCVRVTHGKAARKDGRSPLVKSHVNTWLRQHPQVLGFTSCLPRHGGTGSVYVMLRRTMLEGRDEEGHHHHHH,soluble
8,MNASTSSPSQQLQQAINSTIDKECAVCYSEMILPTTIPSCGHKFCFICLKGVSVSNNGDCPICRGPIDSQIFKKPLQAVDLKMDIPGTPSAAAPDPVVKQEVDDEDVKPDVKKLQEELKKQQAAAAAQKMFWLYRGRHQGWWRFDPRIEKEIEEAFTHQMPMTEVTICGNPYIVDFSQMCQYPKNQSNYSRNVKYGSRLKVLKILAKIDRKSAF,not soluble
9,MEKIVVIKYKDIKLKSPILIGGLPGIGNVGKIAADYIVEKLNMTKMYDIFSQYLPPQVFINDDSVVHLVRNSIYYKKMRGKHDLVILAGDFQGTTQEAQYELSYQVLQIAKEIGVSMIYTLGGYSIGKIVDKPRVLGAVTDKNLVADLEKNGVVFPKGEPGGGIVGSAGLILGLGMELFNMNGACLMGETSGYFADPKSAMEVLNVLQRQLGIKIDMSDIETRSKQIEQITGKMAEEFQNKQNKEDLGYFG,soluble
10,MGSDKIHHHHHHNVYSLPANGGRLIGELQTHVVEKGDYFKTIADKYNIGILELMETNPGVDPFLPTPGTQLVIPTQMLLPDVPRKGIVINLPELRLYYFPKNGREVHVFPVGIGRIGRETPEMTTKIKARIPNPSWTPPASLRAEHLRERGEVLPPVVPAGPDNPLGKYAMQLSYGDGSYLIHGTNKDFGIGMRVSAGCIRLNPDDIEWLFHQAKYGDSVRVINQTVKIATEPDGRQIIEVHSPLSKTEDQPREKVISLSSKVVKFISQESVDNTKANDALLTQNGIPMVISHPPLTAAQDLEITP,not soluble
11,MGSDKIHHHHHHMMKSVLADAVFGGALMIEFYASEALICPRRVWFRLKGIPEKWPEVAKPRLEKGMKIHEVLGKVLKDRFDVELEKSVIIRFPKLGMEIHGKIDVYKEFPIEIKGKSYIPSSPIDYHLAQLNLYLRGVNAEYGYLYYVKLTDDPWRAISDIVFDSFPLIKGNGLKIFEVPYDEVLFKETVKYFYEIKLYLENDELPPAWKGPHCKFCPYNYICLSGEEF,not soluble
12,GQEPENQTLETILNRKSVRKYKDRPVEKEKIDKLIRAGMAAPSSRDRRPWEFIIVTDRKALDTMAEGLPFARMLKETRQAIVVCGDTIKSSNAWFLDCSAASQNLLLAAESMGLGAVWTAVYPYPDRIEIVRKELRLPDHIMPLNVIPVGYPMQKETPKNKYNVQQIHHNGW,soluble
13,MAHHHHHHMSDKLEDIGEFVLVIGDFHSPMRNLGLPDCFKDLLKTDKIKHVLCTGNVGCNENLELLKNIADSVHITKGDMDNNFDFPEKINIKIGDFKISLVHGHQIIPWGDLNALLQWQKEYDSDIIISGHTHKNSINNFEGKYFINPGSATGAFQPWISNPTPSFILMAISKSSIVVYVYEEKNGKMNVEMSELRKQ,soluble
14,MGSDKIHHHHHHALSSIEKIQGKDRYETAAKIAQKQTYENVVLVNTDNTLADGLSASGLAGTVKAPILLSQRNSIPSDTEKMLKDVKKVYIIGTEDSIGKSVENELKQKGIEVKRIGGNDRIETSYLIAKEIASIKPIDKVFITNGYTGEADAMSASSVASRDGAPIILTNGKNVPFEKKEGVQCYALGSEEIISNDLVKKTNSVRLAGEDRFETNKKVIKHFYSSAKEFYLSKGYQLVDAVAGSSIAKNAPIVLVDGNSDKSVLRSADKITALGGIDEKTLEQCLSASSLDASAPTITVGNLNIYQGDKFDISKLNIVAKDSNGNDLTPELIGNINTDKVGKYKVTIKATDIGGKTTSISVEVNVLEYKTNDMNSSEFKRMVSSEMYSLVNSYRKEKGKEPLQVSENLQGMANYWSKYMADKGEFAHVINGKNAAEVFSGGIRSEENIAFVPLTTKSTYTTKDAREVANVIFTVWKKSDKYNENMLSSKFAYTGFGLYILPDGQVYATQEFLNK,not soluble
15,GSHMASMTGGQQMGRGSMVKVLTACGNGMGSSMVIKMKVENALRQLGVSDIESASCSVGEAKGLASNYDIVVASNHLIHELDGRTNGKLIGLDNLMDDNEIKTKLEEALK,soluble
